We go through two molecules from patent US20200400662A1.

Values joined by “and” are separate entries in the source; they are usually repeats but may differ in a detail not shown here. Equal entries are not always repeated.

The target of this experiment is Drug A. Put plainly: cell-based or functional assay.

B1: Fab fragment of Antibody C (Fab, V domains shown)
VH: DVQLVESGGGVVRPGESLRLSCEASGFTFSSNAMSWVRQAPGKGLEWVAGISSGSDTYYGDSVKGRLTISRDNSKNILYLQMNSLTAEDTAVYYCARETWNHLFDYWGQGTLVTVSS
VL: SYELTQPPSVSVSPGQTARITCSGGSYSSYYYAWYQQKPGQAPVTLIYSDDKRPSNIPERFSGSSSGTTVTLTISGVQAEDEADYYCGGYDQSSYTNPFGGGTKLTVL
Regarding B1, the hemagglutination of Drug A-coated erythrocytes with anti-IgG; molar excess of Fab that prevented it (fold molar excess relative to Drug A) was 200 and 400.

B2: Fab fragment of Antibody A (Fab, V domains shown)
VH: DVQLVESGGGVVRPGESLRLSCAASGFSFSSYAMNWVRQAPGEGLEWVSRINSGGGGTDYAESVKGRFTISRDNSENTLYLQMNSLRAEDTAVYYCAKQYDWNSFFDYWGLGALVTVSS
VL: ETVLTQSPATLSVSPGERATLSCRASQTVGSKLAWHQQKPGQAPRLLIYDATNRATGISDRFSGSGSGTDFTLTISSLQTEDSAVYYCQQYYYWPPYRFGGGTKVEIK
Turning to B2, the hemagglutination of Drug A-coated erythrocytes with anti-IgG; molar excess of Fab that prevented it (fold molar excess relative to Drug A) was found to be 2500.
